Assay results from PMC2131756, “Grb7 SH2 domain structure and interactions with a cyclic peptide inhibitor of cancer cell migration and proliferation” (BMC Structural Biology, 2007).
Entries after “also recorded” stand apart in the source; their conditions may differ.

Columns and labels:
breast cancer cells = details: co-treatment with cell permeable G7-18NATE peptide, ref [19]; cited from earlier work
[1] = target: pY1139 phosphopeptide (ErbB2) (Homo sapiens) (UniProt P04626); details: cited from earlier work
full-length Grb7 = assay: Analytical ultracentrifugation: dimerisation of full-length Grb7; type: binding, human
Protocol: (§1) Figure 4 Sedimentation equilibrium analysis of the Grb7 SH2 and Grb7. (a) Absorbance at 280 nm verses radius data at sedimentation equilibrium for Grb7 SH2 at an initial loading concentration of 36 μM. The data collected at 14,000 rpm (circles), 16,600 rpm (squares), 24,300 rpm (diamonds) and 28,800 rpm (triangles) were fitted simultaneously using the nonlinear regression program. (b) Absorbance at 280 nm verses radius data at sedimentation equilibrium for Grb7 at an initial loading concentrations of 12 μM. The data collected at 10,000 rpm (circles) and 11,800 rpm (squares) were fitted simultaneously using the nonlinear regression program NONLIN [77]. The solid line represents the calculated fit to a monomer-dimer model. […]
(§2) Grb7 SH2 domain and full-length Grb7 were analysed at loading concentrations of A280 values of 0.1, 0.3 and 0.6. […] Absorption profiles were recorded at 280 and 360 nm with automatic dialysate absorption compensation. The data were recorded in 0.001-cm steps and ten scans were averaged to produce each profile. The system was deemed to be in equilibrium when profiles recorded 4 h apart were identical. The data were analysed by fitting models of association to the absorbance versus radial position distribution using the program NONLIN [48, 49]. […] The density of the buffer solution was calculated to be 1.00379 g/ml using the program […] v1.08 [74].

[2] = target: the molecule itself; assay: AUC; sedimentation equilibrium, 20°C, Grb7 SH2 at an initial loading concentration of 36 μM, 14,000-28,800 rpm, 50 mM MES pH 6.6, 100 mM NaCl, 1 mM DTT; global fit to a monomer-dimer model (NONLIN); dimer to monomers
Grb7 SH2 domain = target: T1, Grb7 SH2 domain (Homo sapiens, UniProt Q14451); assay: Analytical ultracentrifugation: dimerisation of Grb7 SH2 domain; type: binding
T1 construct: encoding residues 415-532 of human Grb7; GST (N, cleaved yes); made in house; host or cells: Escherichia coli BL21(DE3).pLysS
Protocol: as §1, §2

Molecule: COc1cccc2c1C(=O)c1c(O)c3c(c(O)c1C2=O)C[C@@](O)(C(=O)CO)C[C@@H]3O[C@H]1C[C@H](N)[C@H](O)[C@H](C)O1 [Doxorubicin]
- change of drug EC50 on co-treatment (in words) (breast cancer cells): significant reduction of the drug EC50 value

Molecule: Grb7 SH2 (from UniProt Q14451)
- Kd [1]: 2.3 µM

Molecule: full-length Grb7: Full-length Grb7 (residues 1 – 532)
- dimer formation (in words) (full-length Grb7): in the μM range; also recorded: forms dimers in vitro with a similar affinity to that exhibited by the SH2 domain alone; also recorded: same order of magnitude as that obtained for the SH2 domain alone

B1: Grb7 SH2 domain (residues 415-532 of human Grb7) (domain or fragment)
chain: GSPASGTSLSAAIHRTQLWFHGRISREESQRLIGQQGLVDGLFLVRESQRNPQGFVLSLCHLQKVKHYLILPSEEEGRLYFSMDDGQTRFTDLLQLVEFHQLNRGILPCLLRHCCTRVAL
notes: first two of the 7 N-terminal residues of the construct, printed as GSPASGT; 15N-labelled (minimal medium with 15NH4Cl) for the NMR titration, unlabelled otherwise; Expected mass 13,672 g/mol; Residues 420-532 are seen in the crystal structure; also called 15N-Grb7 SH2
- Kd [2]: 21.8 µM
- stoichiometry N [2]: 2
- dimer association compared with previous experiments at 4 °C (in words) (Grb7 SH2 domain; 20 °C versus 4 °C, ref [38]): slightly weaker association
- dimer formation (in words) (Grb7 SH2 domain; analytical ultracentrifugation): in the μM range
